These results are taken from patent publication US20160138049A1, “OXYGEN-TOLERANT CoA-ACETYLATING [sequence] DEHYDROGENASE CONTAINING PATHWAY FOR BIOFUEL PRODUCTION” (The Regents of the University of California, priority 2013, published 2016).

The subject of data set [1] is CC(=O)SCCNC(=O)CCNC(=O)[C@H](O)C(C)(C)COP(=O)(O)OP(=O)(O)OC[C@H]1O[C@@H](n2cnc3c(N)ncnc32)[C@H](O)[C@@H]1OP(=O)(O)O. The data set is described as follows: purified protein, by the assay type. Particulars: other: pH 7.15, 30° C., 500 μM NADH, 1 mM DTT, acyl-CoA 0.03 mM to 2 mM.
Method: (§3) Enzyme assays were conducted by using Bio-Tek PowerWave XS microplate spectrophotometer. CoA-acylating aldehyde dehydrogenase activity was measured by the decrease of absorbance at 340 nm, corresponding to depletion of NADH. […] The addition of the acyl-CoA initiated the reaction. kcat and Km were determined by nonlinear regression fitting to Michaelis-Menten equation using graphing software Origin.
Data set [2] relates to CCCC(=O)SCCNC(=O)CCNC(=O)[C@H](O)C(C)(C)COP(=O)(O)OP(=O)(O)OC[C@H]1O[C@@H](n2cnc3c(N)ncnc32)[C@H](O)[C@@H]1OP(=O)(O)O. The data set is described as follows: purified protein, by the assay type. Particulars: other: pH 7.15, 30° C., 500 μM NADH, 1 mM DTT, acyl-CoA 0.03 mM to 2 mM.
Method: as §3
Data set [3] in a line: CoA-acylating aldehyde dehydrogenase (PduP) assay, butyryl-CoA reduction. The data set is classed as biochemical. As to conditions: purified under aerobic condition; 500 μM NADH, 1 mM DTT, pH 7.15, 30° C. Here is the method: Protein purification was done by using His-Spin Protein miniprep purification kit from Zymo following manufacturer's manual. Overnight culture of E. coli strain BL-21(DE3) harboring different pCDF-pdup plasmid was used to inoculate fresh 20 ml LB. The newly inoculated culture was incubated at 37° C. until OD600 nm reaches 0.6 which was then induced with 1 mM IPTG. The induced cultures were then incubated overnight in 30° C. rotary shaker to allow protein expression. The cultures were then harvested by centrifugation at 4,300×g for 20 min. The pellet was then resuspended with 1 mL of Zymo His-binding buffer and mixed with 1 mL of 0.1 mm glass beads (Biospec). The sample was then homogenated using TissueLyser II (Quiagen).
(§1) Enzyme assays were conducted by using Bio-Tek PowerWave XS microplate spectrophotometer. CoA-acylating aldehyde dehydrogenase activity was measured by the decrease of absorbance at 340 nm, corresponding to depletion of NADH. […] For determining specific activity for other chain length acyl-CoA, 500 μM was used. The mixture excluding acyl-CoA was incubated for 5 minutes at 30° C. The addition of the acyl-CoA initiated the reaction. kcat and Km were determined by nonlinear regression fitting to Michaelis-Menten equation using graphing software Origin.
(§2) To characterize these PduP homologues, plasmids harboring individual pduP genes were constructed with a poly-His6 tag (plasmids pCDF-pduP_ahyd, pCDF-pdup_kpne, pCDF-pdup_lbre, pCDF-pdup_lmon, pCDF-pdup_sent, and pCDF-pdup_pgin). PduP homologues were then purified under aerobic condition without cleaving off His tags. The activities of the enzymes were determined using acyl-CoA with different chain lengths, and the disappearance of NADH was monitored.
The efficiency of these PduP homologues were assessed.

Data set [4] in a line: Substrate chain length specificity of PduP. Format: biochemical. As to conditions: acyl-CoA chain lengths C2 to C12. Here is the method:
FIG. 3A-B Substrate chain length specificity of CoA-acylating aldehyde dehydrogenases, PduP. A) Specific activity of different PduP (pmol min^−1 mg^−1). B) Relative activity of PduP. Specific activity was determined with substrate concentration of 1 mM acyl-CoA, 500 uM NADH, 1 mM DTT in 50 mM potassium phosphate buffer at pH 7.15 at 30° C.
as §1, §2

As to “Klebsiella pneumoniae PduP, CoA-acylating propionaldehyde dehydrogenase (PduP_K.pne, YP_001336844, SEQ ID NO:45 and 46), poly-His6 tagged (Klebsiella pneumoniae subsp. pneumoniae NTUH-K2044)”, the Km (usually the substrate concentration at which the rate is half of its maximum) in data set [1] is 181.4 ± 25.1 µM; in data set [2] it was 56.0 ± 25.9 µM. “Listeria monocytigenes PduP, CoA-acylating propionaldehyde dehydrogenase (PduP_L.mon, NP_464690, SEQ ID NO:49 and 50), poly-His6 tagged (Listeria monocytogenes EGD-e)”: the Km was determined as 92.6 ± 20.1 µM in data set [1] and 71.7 ± 20.3 µM in data set [2].

Consider “Salmonella enterica PduP, CoA-acylating propionaldehyde dehydrogenase (PduP_S.ent, AAD39015, SEQ ID NO:33 and 34), poly-His6 tagged (Salmonella enterica subsp. enterica serovar Typhimurium str. LT2)”, for which the Km is 342.1 ± 94.8 µM in data set [1] and 87.0 ± 24.8 µM in data set [2].

As to “Porphyromonas gingivalis PduP, CoA-acylating propionaldehyde dehydrogenase (PduP_P.gin, YP_001928839, SEQ ID NO:51 and 52), poly-His6 tagged (Porphyromonas gingivalis ATCC 33277)”, the Km in data set [1] turned out to be 75.9 ± 25.1 µM; in data set [2], 256.0 ± 40.5 µM.

B1: P. gin: PduP homologue from Porphyromonas gingivalis, YP_001928839; SEQ ID NO:51 and 52 (protein, listed as Porphyromonas gingivalis)
chain: MEIKEMVSLARKAQKEYQATHNQEAVDNICRAAAKVIYENAAILAREAVDETGMGVYEHKVAKNQGKSKGVWYNLHNKKSVGILNIDERTGMIEIAKPIGVVGAVTPTTNPIVTPMSNIIFALKTCNAIIIAPHPRSKKCSAHAVRLIKEAIAPFNVPEGMVQIIEEPSIEKTQELMGAVDVVVATGGMGMVKSAYSSGKPSFGVGAGNVQVIVDSNIDFEAAAEKIITGRAFDNGIICSGEQSIIYNEADKEAVFTAFRNHGAYFCDEAEGDRARAAIFENGAIAKDVVGQSVAFIAKKANINIPEGTRILVVEARGVGAEDVICKEKMCPVMCALSYKHFEEGVEIARTNLANEGNGHTCAIHSNNQAHIILAGSELTVSRIVVNAPSATTAGGHIQNGLAVTNTLGCGSWGNNSISENFTYKHLLNISRIAPLNSSIHIPDDKEIWEL
With B1, the “Specific activity for butyryl-CoA reduction” value in data set [3] came to 0.49 ± 0.2 µmol/min/mg. In addition, the “Acyl-CoA substrate favoured (highest specific activity)” value (“Acyl-CoA substrate favoured” for short) in data set [4] is reported as “dodecanoyl-CoA”.

B2: L. mon: PduP homologue from Listeria monocytigenes, NP_464690; SEQ ID NO:49 and 50 (protein)
chain: MESLELEKLVKKVLLEKLAEQKGIPVKTMTKGAKSGVFDTVDEAVQAAVIAQNSYKEKSLEERRNVVKAIREALYPEIESIAARAVAETGMGNVADKILKNTLAIEKTPGVEDLYTEVATGDNGMTLYELSPYGVIGAVAPSTNPTETLICNTIGMLAAGNAVFYSPHPGAKNISLWLIEKLNTIVRESCGVDNLVVTVEKPSIQAAQEMMNHPKVPLLVITGGPGVVLQAMQSGKKVIGAGAGNPPSIVDETANIEKAAADIVDGASFDHNILCIAEKSVVAVDSIADFLMFQMEKNGALHVTNPSDIQKLEKVAVTDKGVTNKKLVGKSASEILKEAGIACDFSPRLIIVETEKTHPFATVELLMPIVPVVRVPNFEEALEVAIELEQGLHHTATMHSQNISRLNKAARDMQTSIFVKNGPSFAGLGFRGEGSTTFTIATPTGEGTTTARHFARRRRCVLTDGFSIR
modifications: Listeria monocytogenes
Consider B2, for which the “Specific activity for butyryl-CoA reduction” value in data set [3] was 17 ± 2 µmol/min/mg. In addition, the “Acyl-CoA substrate favoured” value in data set [4] is listed as “highest for propionyl-CoA reduction”.

B3: S. ent: CoA-acylating propionaldehyde dehydrogenase (PduP) from Salmonella enterica, AAD39015; SEQ ID NO:33 and 34 (protein, listed as Salmonella enterica)
chain: MNTSELETLIRTILSEQLTTPAQTPVQPQGKGIFQSVSEAIDAAHQAFLRYQQCPLKTRSAIISAMRQELTPLLAPLAEESANETGMGNKEDKFLKNKAALDNTPGVEDLTTTALTGDGGMVLFEYSPFGVIGSVAPSTNPTETIINNSISMLAAGNSIYFSPHPGAKKVSLKLISLIEEIAFRCCGIRNLVVTVAEPTFEATQQMMAHPRIAVLAITGGPGIVAMGMKSGKKVIGAGAGNPPCIVDETADLVKAAEDIINGASFDYNLPCIAEKSLIVVESVAERLVQQMQTFGALLLSPADTDKLRAVCLPEGQANKKLVGKSPSAMLEAAGIAVPAKAPRLLIALVNADDPWVTSEQLMPMLPVVKVSDFDSALALALKVEEGLHHTAIMHSQNVSRLNLAARTLQTSIFVKNGPSYAGIGVGGEGFTTFTIATPTGEGTTSARTFARSRRCVLTNGFSIR
Take B3: the “Specific activity for butyryl-CoA reduction” value in data set [3] came out at 27 ± 14 µmol/min/mg. The “Acyl-CoA substrate favoured” value in data set [4] is given as “highest for propionyl-CoA reduction”.

B4: A. hyd: PduP homologue from Aeromonas hydrophila, YP_855873; SEQ ID NO:43 and 44 (protein, listed as Aeromonas hydrophila)
chain: MLSRQNARELVRNAKQAQVIMATFSQQKIDAIVKNVAEEAARHAETLAKMAAEETGFGNWQDKVLKNRFASLHVYDAIKEMKTVGIIHDDQAKKVMDVGVPLGVICALVPSTNPTSTIFYKTLIALKAGNAIIFSPHPGARQCSWKAIEIVKRAAEAAGAPAGIVDGVTQLTLEATSELMHSKDVSLILATGGEGMVRAAYASGTPTISGGPGNGPAFIERSADIHQAVKDIITSKTFDNGVICASEQSIIVERCIYDEVHRELAAQGAYFMNEDEAARMAALLLRPNGTINPKVVGKTALHLSQLAGFSVPPSTRVLVAEQTTVSHSNPYSREKLCPVLGLYVEEEWRAACHRVVELLTNEGLGHTLVIHTRNQDVIRQFSLEKPVNRILINTPAALGGIGATTNLTPALTLGCGAVGGGSSSDNVGPMNLLNIRKVGYGVRTIEELRAPIQPVAVQPASAAPTAPQPCSILDDARFSAPAPACHSADDRFAGASAEVGGEISEQNVERVIRQVLERLGK
Regarding B4, the “Specific activity for butyryl-CoA reduction” value in data set [3] was determined as 1.7 ± 0.6 µmol/min/mg.
